Consider two molecules from US20230138315A1 (JIANGSU HENGRUI MEDICINE, published 2023).

A word on the EC50: it is the concentration that produces a half-maximal response.

Experiment in all cases: HTRF; biotin-labelled antigen with Streptavidin-Tb cryptate
The target of assay [1] is T1, mouse ANGPTL3(17-455)-His (mouse, UniProt Q9R182 17-455, biotin-labelled in the ELISA and HTRF assays (sites not given)).
T1 construct: also called full-length mouse ANGPTL3
T1 sequence: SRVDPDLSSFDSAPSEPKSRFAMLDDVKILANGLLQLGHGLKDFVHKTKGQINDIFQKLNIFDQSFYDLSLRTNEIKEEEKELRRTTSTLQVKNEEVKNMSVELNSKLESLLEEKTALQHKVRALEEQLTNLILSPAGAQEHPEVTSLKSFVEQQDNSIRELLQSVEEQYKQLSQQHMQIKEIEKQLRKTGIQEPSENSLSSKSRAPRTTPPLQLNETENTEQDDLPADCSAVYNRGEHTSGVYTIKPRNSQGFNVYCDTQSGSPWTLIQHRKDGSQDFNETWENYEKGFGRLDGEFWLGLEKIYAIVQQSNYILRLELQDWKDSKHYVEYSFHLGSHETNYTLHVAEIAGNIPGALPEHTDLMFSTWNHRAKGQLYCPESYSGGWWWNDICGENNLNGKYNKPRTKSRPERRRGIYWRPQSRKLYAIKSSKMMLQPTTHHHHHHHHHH

Assay [2] addresses T2, human-ANGPTL3(17-460)-His (human, UniProt Q9Y5C1 17-460, biotin-labelled (labelling kit, sites not stated)).
T2 construct: also called full-length human ANGPTL3
T2 sequence: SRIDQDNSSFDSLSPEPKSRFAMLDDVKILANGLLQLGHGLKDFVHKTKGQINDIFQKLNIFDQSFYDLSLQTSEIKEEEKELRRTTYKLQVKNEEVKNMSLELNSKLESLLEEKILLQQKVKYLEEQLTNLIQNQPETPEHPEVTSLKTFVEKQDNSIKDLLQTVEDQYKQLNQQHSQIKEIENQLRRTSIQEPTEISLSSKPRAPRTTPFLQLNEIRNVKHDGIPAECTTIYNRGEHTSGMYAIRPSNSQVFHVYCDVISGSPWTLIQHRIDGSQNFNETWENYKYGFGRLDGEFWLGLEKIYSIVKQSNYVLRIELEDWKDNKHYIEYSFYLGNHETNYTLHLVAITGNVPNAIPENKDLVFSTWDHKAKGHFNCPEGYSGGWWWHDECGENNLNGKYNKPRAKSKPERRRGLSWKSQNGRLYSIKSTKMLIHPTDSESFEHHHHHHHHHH

For assay [3], the target named is T3, rat ANGPTL3(17-455)-His (rat, biotin-labelled in the ELISA and HTRF assays (sites not given)).
T3 construct: also called full-length rat ANGPTL3
T3 chain: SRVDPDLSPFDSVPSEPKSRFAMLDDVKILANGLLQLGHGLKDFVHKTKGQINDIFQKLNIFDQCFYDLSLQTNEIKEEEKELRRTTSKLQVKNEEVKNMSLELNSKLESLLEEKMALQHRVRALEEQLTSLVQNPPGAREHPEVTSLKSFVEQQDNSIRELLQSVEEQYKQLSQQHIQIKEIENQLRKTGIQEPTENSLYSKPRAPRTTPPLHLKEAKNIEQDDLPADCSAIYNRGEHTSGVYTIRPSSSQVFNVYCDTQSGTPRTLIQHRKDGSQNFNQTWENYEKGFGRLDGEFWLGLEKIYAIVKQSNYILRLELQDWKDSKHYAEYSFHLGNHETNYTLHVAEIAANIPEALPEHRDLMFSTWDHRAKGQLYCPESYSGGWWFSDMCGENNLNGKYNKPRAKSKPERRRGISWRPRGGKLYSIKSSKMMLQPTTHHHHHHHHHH

The target of assay [4] is T4, cynomolgus monkey ANGPTL3(17-460)-His (cynomolgus monkey, UniProt Q9Y5C1 17-460 (human entry), biotin-labelled in the ELISA and HTRF assays (sites not given)).
T4 construct: also called full-length cynomolgus monkey ANGPTL3; Cyno ANGPTL3
T4 chain: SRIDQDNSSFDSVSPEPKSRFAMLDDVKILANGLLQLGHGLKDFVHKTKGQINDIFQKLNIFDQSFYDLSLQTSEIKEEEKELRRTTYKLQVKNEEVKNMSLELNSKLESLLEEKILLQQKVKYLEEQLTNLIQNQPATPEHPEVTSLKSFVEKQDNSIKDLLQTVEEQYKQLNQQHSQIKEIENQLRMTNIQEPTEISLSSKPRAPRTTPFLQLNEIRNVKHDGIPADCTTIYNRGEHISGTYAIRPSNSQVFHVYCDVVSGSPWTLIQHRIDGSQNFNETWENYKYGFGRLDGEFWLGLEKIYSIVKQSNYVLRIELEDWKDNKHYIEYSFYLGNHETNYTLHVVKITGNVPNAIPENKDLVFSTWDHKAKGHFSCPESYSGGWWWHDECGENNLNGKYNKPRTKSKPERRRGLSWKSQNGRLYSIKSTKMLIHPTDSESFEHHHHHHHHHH

B1: P3G (antibody, human IgG4 S228P, kappa, V domains shown)
VH: QVQLVQSGAEVKKPGASVKVSCKSSGYTFTDYYLHWLRQAPGQGPEWMGWISPNSGGTSYAQKFQGRVTMTRDTSISTAYMELSSLRSDDTAVYYCARDIATLGNFFTYGMDVWGQGTTVTVSS
VL: DIQLTQSPSSLSASVGDRVTITCRASQGIRNDLGWYQQKPGKAPKLLIYAASSLQSGVPSRFSGSGSGTDFTLTISSLQPEDFATYYCQQSYSSWTFGQGTKVEIKR
notes: also called anti-ANGPTL3 antibody P3G; P3 (variable regions)
Consider B1, for which the EC50 in assay [1] was 0.638 nM; in assay [2], 0.929 nM; in assay [3], 0.597 nM; in assay [4] it was 0.502 nM.

B2: P8G (antibody, human IgG4 S228P, kappa, V domains shown)
VH: QVQLVQSGAEVKKPGASVKVSCKASGYTFTSYDINWVRQAPGQGLEWVGLINPRDDSTSYAQKFQGRVTMTRDTSTSTMYMELSSLRSEDTAVYFCARDLGSIREVLYYGMDVWGQGTTVTVSS
VL: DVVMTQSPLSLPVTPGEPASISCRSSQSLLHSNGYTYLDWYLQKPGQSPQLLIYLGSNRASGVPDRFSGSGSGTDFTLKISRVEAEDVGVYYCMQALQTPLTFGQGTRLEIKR
notes: also called anti-ANGPTL3 antibody P8G; P8 (variable regions)
As to B2, the EC50 in assay [1] amounted to 0.45 nM; in assay [2], 0.784 nM; in assay [3], 0.484 nM; in assay [4], 0.303 nM.
